Test results as given in the PETadex activity labels.

B1: unnamed (protein)
chain: MSSDKRLLFTLLHRTLLACALTFSAALPACGEEDPKEVTDSSSDDDDETPVDGDTTGDDDPEPMTMKDAGKSSVKDAGKPPPTPAVDAGSTAPKDKDSGTVGGIDAGPAKDAGTVVTPPTTAGDALVRGDAPTEKSASAKGPYAVKTYTSGYPDLPGYLDSTIHYPEGAQPPFAAVVIVPGFVSAQSSIQAWGPFFASHGIVTMTIGTNTPVDQPPMREAALLDALKTVKSENTREGSPLKDKLDLSRLAGMGWSMGGGGALLLGEHNPELKAVIALCPWNPGYSYAKIKMPTLFLAAQADTLAGGQSQGFYSSIPNSVPKILYEIAGADHWHNNDPANLQGAVGRYGLAWLKVFLEGDERYRDLLKVKGPSSSDWQSNVQ
B2: unnamed (protein)
chain: MPKYPFYSQWIVAIGALVFSINASAVTLDEVAATNKLTIKEQSTKIVSTPIASAVAITSPVSTPAVPSNCIADSIITAANLSDTRDKGPFSVAKKAVPRQLANGFGGGTIYYPTNAGGCGLLGGIAVIPGYVSYESSIKWWGPRLASWGFVVITIDTNSIYDDPDSRAAQLSAALDHMLRDNTVGAQIDSTRLGAIGWSMGGGGALQLATKRQTVRAIIPQTPYHDKDYGEMNTPALFITCQNDRIASNKKYSSRFYDKATGAKMKIEIKNGSHFCPSYRFNEILLSKPGIAWMHRYINGDTRFDQFLCSNDNYGNNPRISAYDYKLS
B3: unnamed (protein)
chain: MIRFKTGALTNTISLCLVVALGCGGGETPETSGPPPATQTNPTAQAGATATKPTGTAGAAAPTNTGRPMMTTPPTTTTPTMTTPATAGSAAPAAGSGGTPAATGAGGAPAAEAGSGAAGSAATAGSGAEDEAAAGKGGTEATGDKNHWIRGDDPPADLSGARPGPYKVERYTDGYRNGPAYADSTINYPVDAEPPFALVVVVPGFVSPQSSIASWGPFLASHGIVTMTIGTNLPTDLPETRKDALLDAMQSLKEENTREGSPLKGKLDTSYTATMGWSMGGGGTLLVANENPELKATISLCGWNPGYPYSKIKAPALMFASLGDPLAGGQSQGFYRSIPDETPKMLIEVGAGDHFVANNPASTSGVIGRYGLAWLKVYLEGDERYRKFLLEKPAVP
B4: unnamed (protein)
chain: MKKNIFKKACLSALVIAFSLSAHSGGGGGDDGGSDQLPLPDSCNSNCGYEVGPNPTLSALEATQGPLSVSASTVSSSVDGFGGGTIYYPNNASQELATIAVAPGFTNTQSAIQWWGPLLASHGYVVITIDTNGRFDNPGSRSLQLDAALSYLISEGNRSSSDISGLVDENRLATMGFSMGGGGTLISASRNRLSAAVPMAPWNTGGNDFDAIGVPTLIFACEDDSTARINSHASPFYNSIPSSTDKAYMEINNGPHNCANGNNGNGNDALLSTYGVSWMKRFLDKDSRYDQFLCGPNHVANSKINEYRDTCNY
B5: unnamed (protein)
chain: MKTTKGTKIALIAFTLSFSLSAFSGGGGGGNNNGGLPAPNTCTSNCGFETGPNPNLNFVRASRGPLPTRTTVVSRSVDGFGGGTIYYPSNASEEMAAIAVSPGFTATQSSIDWWGPILASHGFVVITIDTNSRFDQPISRGRQLDSALSYLISENSRRNSPISGLVDETRLATMGHSMGGGGALRSASRNRLSAAMPMAPFNVGNNDFNQIRVPTMIMACENDVVAPVGIHARPFYNRIPGSTDKVLLEFNNGPHNCANGESSGNRPLLSTYGVSWMKRFLDKDRRYNQFLCGPNHVANNGISDFRSTCTF
B6: unnamed (protein)
chain: MERGNHRAKWVIGLGLLALAAAAQSQTNPFQKGPDPTSTLLNATSGPFSVATSSVSSLAAQGFGGGTIYYPSTTGTYAVLAISPGFTATQSSIAWLGRRIATHGFVVITIDTNSTLDQPPSRATQLIAALRHVTDLSNATVRSRVDASRRGVAGHSMGGGGSLIAARDNPSLKAAVPLTAWSTTKVFSTVQVPTLVVGAENDTIASVSSHSIPFYTSLSSSLDKAYAELNNASHLAPNTTNTPIGRYSVAWVKRFMDNDTRYTPFLCGAPHQSYATSAVFSDYRSTCPY
B7: unnamed (protein)
chain: MKLTFVPLAITVVATLTCTSVVAKINLVESQVIQISELKKPAESLIDKSAQTAALPIPPSIATCIDDSAISADNLSQAKDNGPFAISSKDIPRQSAIGFGGGTIHYPINASGCGLLAAIAVVPGFVSYESSIKWLGPRLAAWGFVVITINTDSIYDNPDSRARQLSAALDTIISDDNVGSIVDPNRLGAIGWSMGGGGALKLATVRDEVRAIVPLAPYHDKDYGEVSTPTLVIACQFDRIARNKKYGSMFYDKAIGPKMKVELNNASHFCPSYRFNEILLSKPIIAWMQRYINEDERFDKLLCANETYSENPRFSSYDYANCS
B8: unnamed (protein)
chain: MRTAKDFARGNPLARLCILLALAVFPALSHAQTVIFQEPFNVGIGSFTADGTVNGGGTGASMHGRIQGYSTITSPAINTTGFTNLQLAWTQMCLNSDAGEACQLWYSVNNITWDLVYSTPFAPFNSPASIALPAAAAGQSQLRLRFVRLANSFEEVYDVDNISLTGTAGGGGTTSGSTSGGTSGGGGTPCQNGPAPSATSVQGDGPFTVGTYVVPNPSGYKAGTIYYPTNTVSGACTKFAGIVTMPGYQGTQNNLSWLGPRLASNGFVVINVDTNTLSDSPDQRGAEILSALNQLVSLSNASGNPISGKVDSAKLGAMGHSMGGGGTLVAARNAMIKAAIPMAPYHNTTTNFPDVHAPTLVVTCQGDPSAPAATYGRPMYNSLTTEKAYLELTTTDGHLCVMTGYGNKAVQSRYMTSWMKRWLDGDTRYTQFLCGTTSGSNGVTTWADTCPY
B9: unnamed (protein)
chain: MPKSDRSTPQPARSQHGGFAKLSLGLTALLMSVLVHAQSNPFERGPEPTVASLEAAAGPYAVQTTQVGKGNSNDYARGTVYYPVANDGQFALIAIVPGYTERQAGVSWWGSRLASHGFVVVTVDTNAPGEFPPSRARALKDALATVVKLSQTSSSPFFGKIDASRQGIMGHSMGGGATLELARSNSKLKAAIPFAPWNSNSKVYTRVKVPTLIISCQRDAVAPVNSHANKFYDSFSATLDKALLEVTGGDHYCASTSASAANKAVVGKYGVAWMKRFLDNDTRYSQFLCGAPHQADLAGPIISSYKDSCPY
B10: unnamed (protein)
chain: MTPTLCRPLAAVLTSAAFAALTAVSASALAQTPQEPTEASLNATAGPFSVATESVRAPRGFGGGTIYYPTAAGRYGVVAISPGFTATQSSIAWLGRRMASHGLVVITMNTNSTLDQPASRANQLMAALNHVVSASGAAVQSRADGTRRAVAGHSMGGGGALIAARDNATLRAALPLTPWNTTTDFSGVRVPTLIVGADGDGVASVTRHARPFYASLPNATAKAYGELNSASHFTPNSTNTPIGRYGVTWMKRFVDADTRYSPFLCGAAHLAYATPAVFDRYQNNCPY
B11: unnamed (protein)
chain: MRPCSRSTNTTPPLRTRSRPMTALIALATTIGLALTLLTATAAPAAAADLLSQGKPVTSSSTENTSTPASAAVDGNTGTRWSSTFSDPQWLTVDLGATATISQVVLRWEAAYARSFRIQTSDNGTSWTTIHSTTTSTGGAQTLDVNGSGRYIRLYGTQRGTAYGYSLWEFQVYGSGEGTPPGSGIPDPTTVSLEATNGPLTTATYTVPSPSGYGSGTVTYPTASGSYPGIVLMPGYQGTQQNLQWLAPRLASWGFVVINVGTNTLTDDPESRGRQITAAGTQLLALGDAPGNPLSGKLNGTLGATGHSMGGGGVMAALRDDSRFRAGVPTAPYHPNGNFSGVTEPTFFLTCQSDAVAHGDRYAVPWYTSMSQAEKLYIEVPGDHLCPMTGYGNKAKQGKWMVSFFSLWLRADTRFSPFLCGPARDADKNDTSLVTRWMDTCQF
B12: unnamed (protein)
chain: MTTIIAKLAIAASAAVLATAAFAQQQGPEQTAAQLEAGKGPFTVATAKIATPSGYGGGTVYYPTNASGKVGLIVVAPGFTETQSAMNMWGPILASNGFAVINIDTKSTLDQPPARATQMMAALKQVSDLSKTTASPYYNKIDVTRQAVMGHSMGGGGTLVAATANPALKAAIPAAPWSLATKNFPTLAVPTMIFACQSDVIAPVSGHADRFWASFNKQLPSAFAEYAGAGHQCPTSQGGADRKLVFSKLGIAWFKRFVDGDTRYTQFITNDSRLSRFLTNGSF
B13: unnamed (protein)
chain: MEISNTRQLAVRSRARSRAETGGRKWTIGLGLLLLAAVAHAQTNPYAKGPDPTSSLLNATRGPFSITSTSVSRFVSGFGGGTIYYPTTSGSYAAIAISPGFTATQSSIAWLGQRIASHGFVAITINTNSVYDQPASRATQLMAALRYLTNSSTSAVRSRVDANRLGVAGHSMGGGGALIAARDNPSLKASVPLTAWSTSKNFSTVQVPTLVVGAENDSVAPVSSHSIPFYTSLSSFLEKAYAELNNASHFAPNSTNTPIGRYSVAWVKRFMDNDTRYSPFLCGAPHQSYATSTVFSEYRSTCPY
B14: unnamed (protein)
chain: MLGVMGWSMGGGGTLITVDDHPELKAAITLCAWNPGQTYRQNQVPTLLFAGTADVLAGGQSQGFYTSIPETTPKMLFEVQGADHFFANTPEGASGQCGKYGTAWLKVFLVGDECYRPFLLEPPSGTSDFRTNLE
B15: unnamed (protein)
chain: MRPPCCSAGATWLSRSRSRAAVVLTTLVATVSALLIVSAAPALAAPVPAPTTASLEATNGPLATASYTVPNPSGYGSGTITYPTGSGSYPGVVLMPGYQGTQQNLRWLAPRLASWGFVVVNVGTRTLTDDPESRGDQISAAGTQLLAFSNAVGNPITGKVNGTLGAAGHSMGGGGTMVALRDDARFRAGVPLAPYYQNGNFSSVAKPTFSLTCRSDVAAPGNTYALPWYNSMTRAEKLYVEVPGDHLCPMTGYGNKAKQGKWIVSFFSRWLRGDTRFSPFLCGAEREADRNNAALVTRWMDTCPY

These proteins were tested on BHET. Settings: 120 h.

Question: For B1, which plate clearing is on record?
Answer: The plate clearing was “not clears the plate”.

Question: B2 was tested. Which plate clearing did it give?
Answer: The plate clearing was “not clears the plate”.

Question: B3 was tested. Which plate clearing did it give?
Answer: Its plate clearing is “not clears the plate”.

Question: For B4, which plate clearing is on record?
Answer: Its plate clearing is “not clears the plate”.

Question: With B5 as the protein, how does the plate clearing read?
Answer: Its plate clearing is “not clears the plate”.

Question: With B6 as the protein, how does the plate clearing read?
Answer: Its plate clearing is “not clears the plate”.

Question: With B7 as the protein, how does the plate clearing read?
Answer: The plate clearing was “not clears the plate”.

Question: With B8 as the protein, how does the plate clearing read?
Answer: The plate clearing was “not clears the plate”.

Question: Which plate clearing does the source give for B9 here?
Answer: The plate clearing was “clears the plate (z > 3 vs empty vector)”.

Question: How did the plate clearing turn out when B10 was run?
Answer: Its plate clearing is “not clears the plate”.

Question: With B11 as the protein, how does the plate clearing read?
Answer: Its plate clearing is “not clears the plate”.

Question: How did the plate clearing turn out when B12 was run?
Answer: Its plate clearing is “not clears the plate”.

Question: For B13, which plate clearing is on record?
Answer: The plate clearing was “not clears the plate”.

Question: Which plate clearing does the source give for B14 here?
Answer: The plate clearing was “not clears the plate”.

Question: B15 was tested. Which plate clearing did it give?
Answer: Its plate clearing is “not clears the plate”.
